Laboratory results reported in patent publication US9056079B2, “Molecules interfering with binding of calbindin to inositol monophosphatase for the treatment of mood disorders” (Ben-Gurion University of the Negev Research and Development …, priority 2008, dated 2015).
Where two headings read alike, the source gives them in different places. Where no end group is shown, it is not given here.

Tests used:
IMPase [1] = conditions: 30 mM LiCl; cited from earlier work
IMPase [2] = molecular target: T1, IMPase (Bos taurus, UniProt P20456); conditions: read-out: Ki, uncompetitive inhibition of IMPase; cited from earlier work
T1 sequence (P20456 1-277): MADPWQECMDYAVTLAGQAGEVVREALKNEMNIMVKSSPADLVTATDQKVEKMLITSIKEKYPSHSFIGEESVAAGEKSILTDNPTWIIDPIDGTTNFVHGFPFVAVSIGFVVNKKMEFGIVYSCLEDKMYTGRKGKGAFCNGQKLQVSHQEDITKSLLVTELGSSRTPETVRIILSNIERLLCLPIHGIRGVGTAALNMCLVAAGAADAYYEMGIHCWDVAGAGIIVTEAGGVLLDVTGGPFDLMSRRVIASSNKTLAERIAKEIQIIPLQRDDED

[3] = molecular target: T2, calbindin-activated IMPase (Homo sapiens, UniProt P05937); experiment: IMPase activity in mouse brain crude homogenate in the presence of recombinant human calbindin and short peptides (malachite green phosphate assay); format: biochemical; design: from tissue; host or cells: mouse brain crude homogenate; key to IMPase Activity, nean ± SD: fraction of mean control value in each run; conditions: for IMPase Activity, nean ± SD / effect of peptide on the enhancement of IMPase activity by calbindin (in words): 10 μM peptide; for IMPase Activity, nean ± SD: values normalized to the mean of the control values in each run; for effect of peptide on the enhancement of IMPase activity by calbindin (in words): 20 μM calbindin
T2 sequence (P05937 1-261): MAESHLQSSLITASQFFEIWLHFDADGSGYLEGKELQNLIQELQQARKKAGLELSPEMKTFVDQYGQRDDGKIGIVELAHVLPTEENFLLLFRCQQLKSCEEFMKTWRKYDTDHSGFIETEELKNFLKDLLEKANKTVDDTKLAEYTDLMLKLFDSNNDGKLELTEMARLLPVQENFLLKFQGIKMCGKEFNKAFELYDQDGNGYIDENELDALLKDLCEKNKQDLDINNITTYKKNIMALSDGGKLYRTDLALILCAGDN
Description: (§1) IMPase activity in mouse brain homogenates was measured as previously described [Cryns et al., 2008]. Inorganic phosphate liberated from inositol-1-phosphate was quantified spectrophotometrically in an ELISA reader (iEMS, Labsystems) using the malachite green color reagent. To study the effect of the synthetic peptides on the enhancing interaction between calbindin and IMPase the reaction was carried out in the presence of 20 μM human recombinant calbindin [Thulin and Linse, 1999] (produced by PPS, Rehovot, Israel, using the plasmid kindly donated by S. Linse, Lund, Sweden) and in the presence or absence of 10 μM of each of the peptides. In order to distinguish IMPase activity from non-specific phosphatases the reaction was carried out in the presence and absence of 30 mM LiCl. […] The enzyme activity was calculated as the difference between the activity values in absence and in the presence of Li. Values were normalized to the mean of the control values in each run.

[4] = molecular target: T2, calbindin-activated IMPase; experiment: IMPase activity in postmortem human brain crude homogenate in the presence of human recombinant calbindin; format: biochemical; design: from tissue; host or cells: postmortem human brain crude homogenate
Description: The designed peptides were validated by in vitro IMPase activity measurements. As shown in the Examples (Table 1), IMPase activity of mouse brain crude homogenate is increased by 1.9 ±1.0 (S.D.) fold in the presence of 20 μM human recombinant calbindin. […] Peptides 2 through 4 (SEQ ID NO:2 through SEQ ID NO:4), which included the Lys-Glu-Lys motif or part of it, inhibited the activating interaction similarly to Peptide 1.
as §1

IMPase [5] = experiment: Basal IMPase activity in the presence of peptide but in the absence of calbindin (control for nonspecific effect); format: biochemical
Description: To control for a possible nonspecific effect of short peptides on IMPase activity the enzyme's activity in the presence of Peptide 1 (but in the absence of calbindin) was assessed. […] Furthermore, possibilities were checked that there was a protease activity in the homogenate, and that eventual prior interaction between IMPase and calbindin prevents interference by the active peptides. To this end calbindin was preincubated with the homogenate for 10 min prior to the addition of the substrate. No difference in IMPase activity was found in these two experiments.
as §1, with “peptides.” for “peptides. In order to distinguish IMPase activity from non-specific phosphatases the reaction was carried out in the presence and absence of 30 mM LiCl.”, “Values were normalized to the mean of the control values in each run.” left out

[6] = molecular target: T2, calbindin-activated IMPase; design: from tissue; host or cells: postmortem human brain crude homogenate; conditions: postmortem human prefrontal cortex crude homogenate; recombinant human calbindin; Shamir et al., 2005; cited from earlier work
[7] = 20 μM human recombinant calbindin

Molecule | IMPase Activity, nean ± SD [3, 7] | further results
[Cl-].[Li+] [LiCl] | – | inhibition of IMPase activity (in words) (IMPase [1]): totally inhibits IMPase activity
[Li] [lithium] | – | Ki (IMPase [2]): 800 µM
IAAAYP [Peptide 8] | 2.3 ± 1.7 | –
IAEAYP [Peptide 6] | 2.5 ± 1.1 | –
IAEKYP [Peptide 4] | 1.1 ± 0.6 | –
IKAKYP [Peptide 2] | 0.9 ± 0.5 | –
IKEAYP [Peptide 3] | 1.0 ± 0.5 | –
IKEKYP [Peptide 1, hexapeptide identical to residues 58-63 of IMPase] | 1.2 ± 0.9 | effect of peptide on the enhancement of IMPase activity by calbindin (in words) [3]: strongly reduced; effect of peptide on calbindin-activated IMPase (in words) [4]: abolished this effect; effect on basal activity of IMPase (IMPase [5]): did not affect the basal activity of IMPase
Ile-Lys-Glu-Lys-Tyr (IKEKY; Peptide derived from the segment including residues 55-66 of IMPase) [Peptide 9] | 1.9 ± 0.6 | effect of peptide on the enhancement of IMPase activity by calbindin (in words) [3]: did not interfere with the enhancement of IMPase activity by calbindin
KHIKPS [Peptide 7] | 1.4 ± 0.2 | –
Lys-Glu-Lys (KEK; Peptide derived from the segment including residues 55-66 of IMPase) [Peptide 10] | 2.6 ± 1.2 | effect of peptide on the enhancement of IMPase activity by calbindin (in words) [3]: did not interfere with the enhancement of IMPase activity by calbindin
SYEHKP [Peptide 5] | 1.4 ± 0.6 | –
calbindin: member of the vitamin-D-dependent calcium-binding proteins; binds IMPase residues 55-66 and enhances its activity | 1.9 ± 1.0 | increase of IMPase activity by calbindin [3, 7]: 1.9 ±1.0 fold; increase of IMPase activity by calbindin [6]: 3.5 fold; increase of human brain IMPase activity by calbindin [4]: three-fold
